Data: patent US20160108128A1 (CANCER RESEARCH TECHNOLOGY, published 2016)
Numbering of substitutions follows the chain as printed.

B1: J1-65D variant 3 (antibody, human IgG1, V domains shown)
VH: QVQLVQSGAEVKKPGSSVKVSCKASGYTFTDYEMHWVRQAPGQGLEWMGAIQPGGGGTAYAQKFQGRVTLTADKSTSTAYMELSSLRSEDTAVYYCTRRGYDDYPFAYWGQGTLVTVSS
VL: DIQMTQSPSSLSASVGDRVTITCRASGNIHNYLAWYQQKPGKAPKLLIYNAKTLADDVPSRFSGSGSGTDYTLTISSLQPEDFATYYCQHFWSAPWTFGGGTKLEIKR
notes: human IgG1; also called J1-65DV3; V3
B2: J1-65D variant 12 (antibody, human IgG1, V domains shown)
VH: B1 VH with L70I
VL: B1 VL with D57A, G100Q
notes: human IgG1; also called J1-65DV12; V12
B3: J1-65D variant 8 (antibody, human IgG1, V domains shown)
VH: B1 VH with L70I
VL: B1 VL with D57A
notes: human IgG1; also called J1-65DV8; V8
B4: J1-65D variant 5 (antibody, human IgG1, V domains shown)
VH: B1 VH with V11L, A61N, Q65K
VL: B1 VL with D57A
notes: human IgG1; also called J1-65DV5; V5
B5: J1-65D variant 11 (antibody, human IgG1, V domains shown)
VH: B1 VH
VL: B1 VL with D57A, G100Q
notes: human IgG1; also called J1-65DV11; V11
B6: J1-65D variant 10 (antibody, human IgG1, V domains shown)
VH: B1 VH with V11L, Q65K
VL: B1 VL with D57A, G100Q
notes: human IgG1; also called J1-65DV10; V10
B7: J1-65D variant 7 (antibody, human IgG1, V domains shown)
VH: B1 VH
VL: B1 VL with D57A
notes: human IgG1; also called J1-65DV7; V7
B8: J1-65D variant 9 (antibody, human IgG1, V domains shown)
VH: B1 VH with V11L, A61N, Q65K
VL: B1 VL with D57A, G100Q
notes: human IgG1; also called J1-65DV9; V9
B9: J1-65D variant 4 (antibody, human IgG1, V domains shown)
VH: B1 VH with L70I
VL: B1 VL
notes: human IgG1; also called J1-65DV4; V4
B10: J1-183D (antibody, V domains shown)
VH: QVQLQQPGTELVRPGVSVKISCKVSGYAFTDYAIHWIMQSHAKSLEWIGIINTYYGDSKYNQKFKDKATMTVDKSSNTAYMELARLTSEDSAIYYCARGYDGFAYWGQGTLVTVSS
VL: DIQLTQSPASLSASVGETVTFTCRTSENIYSYLTWYQQKQGKSPQLLVYNAKILAAGVPSRFSGYGSGTQFSLKINSLQPEDFGTYYCQHHYDIPWTFGGGTKLEIK
B11: J1-65D (antibody, V domains shown)
VH: QVQLQQPGAELVRPGASVKLSCKALGYTFTDYEMHWVKETPVHGLEWIGAIQPGGGGTAYNQKFKGKATLTADKSSSTAYMELSSLTSEDSAVYYCTRRGYDDYPFAYWGQGTLVTVSS
VL: DIQLTQSPASLSASVGETVTITCRASGNIHNYLAWYQQKQGKSPQLLVYNAKTLADDIPSRFSGSGSGTQYSLKINSLQPEDFGSYYCQHFWSAPWTFGGGTKLEIK

Target: T1, human Jagged 2, full length, on HEK293 cells (human, UniProt Q9Y219 24-1238)
T1 construct: whole, on cells; also called J2; hJ2
T1 sequence (Q9Y219 24-1238): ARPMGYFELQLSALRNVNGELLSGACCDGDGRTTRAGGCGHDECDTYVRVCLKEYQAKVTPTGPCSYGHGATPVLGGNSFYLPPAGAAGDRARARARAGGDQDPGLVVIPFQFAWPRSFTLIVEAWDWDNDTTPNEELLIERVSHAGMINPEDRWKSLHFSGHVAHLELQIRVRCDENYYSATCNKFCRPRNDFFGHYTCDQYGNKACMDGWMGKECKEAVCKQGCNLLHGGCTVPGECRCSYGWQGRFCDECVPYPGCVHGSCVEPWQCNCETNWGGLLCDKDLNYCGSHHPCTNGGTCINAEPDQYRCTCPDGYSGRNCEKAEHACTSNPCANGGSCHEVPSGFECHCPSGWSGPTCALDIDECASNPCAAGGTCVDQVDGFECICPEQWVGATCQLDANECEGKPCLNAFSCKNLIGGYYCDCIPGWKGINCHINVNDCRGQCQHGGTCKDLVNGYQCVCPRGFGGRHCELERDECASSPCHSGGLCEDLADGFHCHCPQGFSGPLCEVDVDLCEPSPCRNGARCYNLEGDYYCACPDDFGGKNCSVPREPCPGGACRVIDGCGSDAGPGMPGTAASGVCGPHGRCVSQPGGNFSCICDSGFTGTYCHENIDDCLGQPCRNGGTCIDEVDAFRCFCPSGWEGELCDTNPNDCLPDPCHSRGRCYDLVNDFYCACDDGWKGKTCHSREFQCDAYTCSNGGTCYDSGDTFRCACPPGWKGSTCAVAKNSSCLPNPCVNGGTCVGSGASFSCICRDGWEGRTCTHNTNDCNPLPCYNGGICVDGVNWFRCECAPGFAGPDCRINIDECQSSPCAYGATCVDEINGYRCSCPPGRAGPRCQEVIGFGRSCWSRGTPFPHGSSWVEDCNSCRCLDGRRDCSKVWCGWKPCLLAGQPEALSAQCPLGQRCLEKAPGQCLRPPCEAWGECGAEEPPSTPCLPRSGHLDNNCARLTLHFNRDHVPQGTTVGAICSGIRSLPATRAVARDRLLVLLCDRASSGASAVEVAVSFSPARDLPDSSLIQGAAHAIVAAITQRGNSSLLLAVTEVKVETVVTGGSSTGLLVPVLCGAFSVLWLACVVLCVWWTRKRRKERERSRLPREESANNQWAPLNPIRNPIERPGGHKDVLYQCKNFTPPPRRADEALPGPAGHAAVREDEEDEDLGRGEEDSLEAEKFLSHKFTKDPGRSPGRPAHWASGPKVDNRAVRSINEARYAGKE
Assay: FACS, 293-JAG2 cells, anti-human-APC
Method: FIG. 18. […] Samples were analysed by FACS and the mean fluorescence intensities (MFI) were plotted. […] With the exception of J1-65D variants 13-16, all the remaining antibodies effectively bound the human J1 protein.
(§1) HEK293 cells transfected with human J1, J2 or FLAG-EGFP-tagged DSL-EGF3 constructs, B16F10 cells transfected with human DLL4 or mouse J1, and human cancer cell lines, were stained with either purified anti-J1 antibodies at 10 μg/ml diluted in FACS wash buffer (2% FBS in PBS+0.1% sodium azide) or neat hybridoma supernatants followed by a allophycocyanin (APC)-conjugated secondary antibody at 1:200 dilution: for murine primary antibodies, used goat anti-mouse-APC (eBioscience); for humanised and chimeric antibodies used goat anti-human IgG (H+L) secondary antibody (Jackson ImmunoResearch Laboratories). After washing, samples were fixed with 1% paraformaldehyde (in PBS) and acquired with a FACSCalibur. FACS data were analysed with FlowJo software (TreeStar Inc.).

Binder	binding result
B1	no binding (tested: 10 ug/ml)
B2	no binding (tested: 10 ug/ml)
B3	no binding (tested: 10 ug/ml)
B4	no binding (tested: 10 ug/ml)
B5	no binding (tested: 10 ug/ml)
B6	no binding (tested: 10 ug/ml)
B7	no binding (tested: 10 ug/ml)
B8	no binding (tested: 10 ug/ml)
B9	no binding (tested: 10 ug/ml)

Target: T2, J1 DSL-EGF3 soluble recombinant protein (human Jagged 1 amino acids 185-335) (human, UniProt P78504 185-335)
T2 construct: biotinylated in the CD46 ELISA; also called J1-DE3; DSL+EGF1-3
T2 sequence (P78504 185-335, form in doubt): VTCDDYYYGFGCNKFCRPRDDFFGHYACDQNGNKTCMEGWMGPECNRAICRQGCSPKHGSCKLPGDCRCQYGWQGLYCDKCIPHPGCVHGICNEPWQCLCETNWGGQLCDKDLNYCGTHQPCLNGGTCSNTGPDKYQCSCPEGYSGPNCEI
Assay: affinity to the immunogen J1-DE3; method not stated

Binder	Kd [nM]
B10	0.58
B11	0.13
B1	0.158
B2	0.0806
B3	0.0717
B4	0.0446
B5	0.243
B6	0.293
B7	0.151
B8	0.0139
B9	0.0949

Target: T3, human Jagged 1, full length, on cells (human, UniProt P78504 34-1218)
T3 construct: whole, on cells; the cell is named under assay; also called hJ1; J1
T3 sequence (P78504 34-1218): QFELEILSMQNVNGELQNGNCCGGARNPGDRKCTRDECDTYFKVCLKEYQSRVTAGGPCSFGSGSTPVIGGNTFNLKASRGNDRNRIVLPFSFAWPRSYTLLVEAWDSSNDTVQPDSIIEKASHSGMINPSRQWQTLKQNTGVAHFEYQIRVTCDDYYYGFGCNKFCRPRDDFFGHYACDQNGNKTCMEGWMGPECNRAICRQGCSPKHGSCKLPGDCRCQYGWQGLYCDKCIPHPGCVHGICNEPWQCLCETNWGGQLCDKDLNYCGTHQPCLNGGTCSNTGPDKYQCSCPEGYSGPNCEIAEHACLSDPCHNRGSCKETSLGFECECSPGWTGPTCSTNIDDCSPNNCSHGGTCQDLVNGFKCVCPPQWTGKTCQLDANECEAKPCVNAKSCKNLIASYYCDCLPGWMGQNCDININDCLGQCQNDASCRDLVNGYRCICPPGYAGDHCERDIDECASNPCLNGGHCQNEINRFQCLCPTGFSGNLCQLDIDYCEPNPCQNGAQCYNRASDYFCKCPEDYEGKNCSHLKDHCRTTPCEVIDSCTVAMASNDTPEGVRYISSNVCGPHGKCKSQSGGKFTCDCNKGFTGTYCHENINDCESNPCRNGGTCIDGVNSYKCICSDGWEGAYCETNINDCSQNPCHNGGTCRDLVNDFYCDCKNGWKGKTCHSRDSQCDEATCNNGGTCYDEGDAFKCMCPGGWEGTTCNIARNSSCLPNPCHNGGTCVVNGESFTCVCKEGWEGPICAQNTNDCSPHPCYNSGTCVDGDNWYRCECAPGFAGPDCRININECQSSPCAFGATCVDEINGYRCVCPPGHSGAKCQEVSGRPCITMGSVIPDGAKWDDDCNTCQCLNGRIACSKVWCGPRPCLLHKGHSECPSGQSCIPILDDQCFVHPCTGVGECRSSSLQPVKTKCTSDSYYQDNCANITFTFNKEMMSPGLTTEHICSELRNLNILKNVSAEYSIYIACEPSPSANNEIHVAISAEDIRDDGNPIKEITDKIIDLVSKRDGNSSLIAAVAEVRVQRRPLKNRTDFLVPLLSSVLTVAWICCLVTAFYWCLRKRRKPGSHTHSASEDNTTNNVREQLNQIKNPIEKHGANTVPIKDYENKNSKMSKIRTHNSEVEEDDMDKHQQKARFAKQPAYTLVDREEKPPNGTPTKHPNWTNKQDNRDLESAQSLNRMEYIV
Assay: FACS competition, HEK293-J1 cells, against biotinylated J1-187B 1.0 µg/ml

Binder	IC50 (read off the curve) [µg/mL]
B11	~0.5

Target: T3, human Jagged 1, full length, on cells
Assay: FACS competition, HEK293-J1 cells, against biotinylated J1-156A 1.0 µg/ml

Binder	IC50 (read off the curve) [µg/mL]
B11	~0.6

Target: T3, human Jagged 1, full length, on cells
Assay: FACS competition, HEK293-J1 cells, against biotinylated J1-65D 1.0 µg/ml

Binder	IC50 (read off the curve) [µg/mL]
B11	~1

Target: T4, murine Jagged 1, full length, on B16F10 cells (mouse, UniProt Q9QXX0 34-1218)
T4 construct: whole, on cells; GFP co-expressed; also called mJ1; B16F10-mJAG1
T4 sequence (Q9QXX0 34-1218, one chain of several): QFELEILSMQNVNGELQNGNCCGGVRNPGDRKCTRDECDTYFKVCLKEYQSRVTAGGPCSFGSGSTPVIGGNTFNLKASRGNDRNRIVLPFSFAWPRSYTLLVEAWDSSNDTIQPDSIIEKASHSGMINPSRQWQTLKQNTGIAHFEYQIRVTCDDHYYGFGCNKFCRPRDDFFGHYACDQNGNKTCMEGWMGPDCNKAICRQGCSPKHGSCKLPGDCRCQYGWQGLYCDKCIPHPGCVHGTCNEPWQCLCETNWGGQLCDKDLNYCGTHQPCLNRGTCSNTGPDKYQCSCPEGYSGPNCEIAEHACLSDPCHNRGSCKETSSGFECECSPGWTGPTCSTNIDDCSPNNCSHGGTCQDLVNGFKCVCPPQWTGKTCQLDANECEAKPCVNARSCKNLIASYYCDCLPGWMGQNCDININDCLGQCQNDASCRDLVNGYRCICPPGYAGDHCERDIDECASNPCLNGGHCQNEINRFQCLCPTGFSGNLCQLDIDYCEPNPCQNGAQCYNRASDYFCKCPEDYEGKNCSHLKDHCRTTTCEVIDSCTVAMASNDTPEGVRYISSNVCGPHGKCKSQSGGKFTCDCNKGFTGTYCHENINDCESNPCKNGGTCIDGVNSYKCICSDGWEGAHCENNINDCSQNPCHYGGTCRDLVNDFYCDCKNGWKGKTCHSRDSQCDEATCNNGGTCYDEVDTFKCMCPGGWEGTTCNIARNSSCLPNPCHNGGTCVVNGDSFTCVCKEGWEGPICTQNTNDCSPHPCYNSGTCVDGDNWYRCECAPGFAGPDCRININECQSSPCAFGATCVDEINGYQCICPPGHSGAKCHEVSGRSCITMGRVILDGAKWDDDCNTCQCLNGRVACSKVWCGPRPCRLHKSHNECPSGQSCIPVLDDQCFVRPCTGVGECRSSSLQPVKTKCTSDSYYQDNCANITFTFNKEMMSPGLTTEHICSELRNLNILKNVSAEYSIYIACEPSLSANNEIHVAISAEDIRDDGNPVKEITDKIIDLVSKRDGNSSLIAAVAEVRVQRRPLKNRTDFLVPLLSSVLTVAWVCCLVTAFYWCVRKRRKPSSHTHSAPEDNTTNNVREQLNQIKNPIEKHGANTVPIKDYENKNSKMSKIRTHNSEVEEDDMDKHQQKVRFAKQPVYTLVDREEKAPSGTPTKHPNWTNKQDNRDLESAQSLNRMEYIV
Assay: FACS, B16F10-mJAG1 cells, anti-human-APC
Method: FIG. 19. […] Samples were analysed by FACS and the mean fluorescence intensities (MFI) were plotted.
as §1

Binder	binding result
B1	no binding (tested: 10 ug/ml)
B2	no binding (tested: 10 ug/ml)
B3	no binding (tested: 10 ug/ml)
B4	no binding (tested: 10 ug/ml)
B5	no binding (tested: 10 ug/ml)
B6	no binding (tested: 10 ug/ml)
B7	no binding (tested: 10 ug/ml)
B8	no binding (tested: 10 ug/ml)
B9	no binding (tested: 10 ug/ml)

Target: T2, J1 DSL-EGF3 soluble recombinant protein …
Assay: SPR (Biacore), mAb immobilised, J1 protein in flow

Binder	Kd [nM]
B10	4.9
B11	9.7

Target: T5, J1-NE12 (human Jagged 1, entire N-terminus to EGF12) (human, UniProt P78504 32-703)
T5 construct: domain: entire N-terminus to EGF12; eukaryotically expressed soluble form used in SPR
Assay: SPR (Biacore), mAb immobilised, J1 protein in flow

Binder	Kd [nM]
B10	4.4
B11	3

Target: T6, J1-NE3 (human Jagged 1, entire N-terminus until the third EGF domain) (human, UniProt P78504 32-335, limits assumed)
T6 construct: domain: entire N-terminus until the third EGF domain; eukaryotically expressed soluble form used in SPR
Assay: SPR (Biacore), mAb immobilised, J1 protein in flow

Binder	Kd [nM]
B10	5.2
B11	3.3
